In the DeepSol protein solubility set:

Experiment: soluble on expression in E. coli; label from the status in PepcDB or PDB records

For “MSLESPELKALVDAGKLPAVEKRLPKEPLVLTPLESVGTYGGTWRTATFGGGDSEIERSIGYTRLVRWNPEWTEVIPDIAKSVEVNDNATEYTFTLREGTRWSDGEPFTADDLVWWNENVLRNTKITPAAPNWLTAGGETVKVEKLADDKVIFKFAAPNGLFLMNMATVRGSDILAAAPAHYLKQFHKDFNPDGIDALVKAAGATDWVQLFNNKIGFPGRWRDLGRPTLDAWVLTAPYNGTTQVVGERNPYYAKVDTAGNQLPYFDRITIDVMQDTQAIILKAISGEIDMQNRFIETTDARTVIVQNQEKGGYGLFIARPAWSNALLITLNQTHKNPALRAVFSNKDFRIGLSYAINREELNQLIYAGQAKPYQAAPREGTALYDEKMATQYLEYNVDLANQYLDKAGLTKHDAEGYRLGQDGKRITFAIDALTGSPIQVDALEMIQRYWRAVGIDMQPRPAERSLIFSRLQNNENDGLGWVGGGGYDFLGLLDPKWYFPHEYESSFATAWGLYYQNPKDPNAQEPSPAAKKQMDLYRQVQEAPTLEKQLAAMKELLAITRDEFYVIGTNLEPDRVGIVKTNMRNVPKVIPSTSFYMTPGPAKPETFYYQQEGHHHHHH”, which “soluble on expression in E. coli” value is on record?
The value was “soluble”.

For “SIVHHAKERLILCSPYFIPDESLLEAVTSACYRGVTVELFVSEQADQFAIDHAQSSYYQALLEAGVKIYQFPKPDVLHTKYMIADPDDTTGNEALGVLGSSNLDIRSFGLNYEISLMIAKGNLIHELNALTDRYRTVSFKLTLDKWNQRSWRRRYVDNVMRLTSALQ”, which “soluble on expression in E. coli” value is on record?
Its value is “not soluble”.

Which “soluble on expression in E. coli” value does the source give for “MGSDKIHHHHHHMSDTLTDSRIVYFYEAVRCGTIRAAADWLDVAPSAVSRQIGLLEKELDATLVERHARGVTPTDAGRCVIEYFREQLAHRDDLISRLQELRGLKTGQVSLVLGEGFVSDLLAGPMQQFCRQFPGIRVNLDVGSTNDVIRKISNDEGEIGLVYNPPAEPKLVSRASKRQPMMAIVGPDFPRRSHKVLTVQQLATYPMAATHPSYGTRQMMEAVEYAERVRLAPIITTNSFAILKEFVKSGLGISVMPAFAVAAELQAKELFAIEIAHPILENAEAHMVTRVGRKLSVAANKMLQMMTGQMRAFR” here?
The value was “not soluble”.

With “MPVMSLIEQYEAAIYRGEIDSDPEQREILEHMQRLAEDLQKKSDSWFPWRKKHPIKGLYIYGPVGVGKTYLVDLFYQHIDEEKKARFHFHHFMQQIDAQLRRLQGKKNPLQYIAKEMAKSIRLLCFDEFLVHDVAYAMILAELLQALHHYGVVLVVSSNTRPDELYLNGVHRERFIPAIEIIKKNCEVLNLNQKRDYRLGRQPLLEAYLYPLNEQTQEAMEKQFALITREEDCKGFITVQNRDIPYIKYGTRSIWFAFDVICNFPRSQLDYLEIADRFDNVFLSDVYQLTESHTAQAIMFIHFIDVMYDRGIKLIISADVPAEELYVKGEMKETFKRTLSRLIEMQSVDYLSRHPRRLVKEMLLEHHHHHH” as the sequence, how does the “soluble on expression in E. coli” value read?
The value was “not soluble”.

For “MKVVAAYLLAKLSGNENPSVADLKKIVESVGAEIDQEKIDLFFSLIKDRDVTELIAVGREKMAALSSGGGAVAVASGGGGGAAPAAEPASVESKKKEEEKEESEDDGGMMSLFD”, which “soluble on expression in E. coli” value is on record?
Its value is “soluble”.

Which “soluble on expression in E. coli” value does the source give for “MGSDKIHHHHHHMYNEGVTSPSQLARKKNATDKWHGSSIRKILENPHYTGTLQQCREYRPSVTSKRRRSVNLENQIIIEKSHEPIIPLEDFLIVQEILITRKRRRPQAEVHLFTNTAVCKDCRRSMHFKKNRKGYVCGSYNKHGLKACSDHYVSEIDLTDKVITNLNKIYLKFSKENYFKELSEKALKYKEKIESKIIEINEKLNDKKRDKSNLVISLANGVISKEDYQLAINITNEDISNFETTLHQLSKDLEFQKIEKEIIDFKKSLDKFMKEGTLTPEMLHLLVDEIEVHANGTIEINYRFREPTVPSA” here?
Its value is “not soluble”.

Which “soluble on expression in E. coli” value does the source give for “MSLSAPKQWQVGIVGYGEVGKILAEDLRAQGVKVAAYDVKLADDRGGPLREHASRHDVALTTSHAELAARSDFIISAVTASQTVAVAEACAGAINQGTWFLDFNSASPGAKQRAASLIDGAQGRYVEGAVMTSVPPYRIKVPLLLGGAYAAELAPLINTLGFAAKPASDQLGVASATKMCRSIMIKGLEAMVIESFTTARAYGVEDAVIASLQETFPQIDWEKQGAYFFQRVIAHGRRRAEEVREVAETVREAGLTPWSAQGTAERQAWVADLADEGLFGTRGASGFARSPDWRTEADRILAKVKDETKTEGHHHHHH” here?
The value was “not soluble”.

With “MNLPDGTQLVVGRQLAKVKSNQNWIRIPEYKVRGNKVIISHLWVGSINMPRRPFWSFRELWEKHLGRKDAINVWSRIRSYNTQVLLKILELLEKEPETQAKKLVKRATMHQLRNIAESFEEL” as the sequence, how does the “soluble on expression in E. coli” value read?
Its value is “not soluble”.
